Tested on: MS2 coat protein
Assay: apparent KD of MS2 coat protein; designed switch direction (-1 OFF switch, 1 ON switch): -1; higher = weaker reporter binding
In short: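 On Illumina chips, designed RNA switches with common flanks were made by stalled E. coli RNA polymerase. Titrations with SNAP-549-labelled MS2 coat protein, doubling from 0.7 or 1.5 nM to 3 µM, were done with no input, with 200 uM small-molecule ligand, or with an oligonucleotide input. Apparent KD is the median per design over clusters, from curve fits of normalised cluster fluorescence.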

[1] = Eterna round: R95, input ligand: microRNA oligo, concentration not stated
[2] = input ligand: microRNA oligo, concentration not stated
[3] = Eterna round: R95, input ligand: FMN 200 uM
[4] = Eterna round: R95, input ligand: none

Sequence	apparent KD of MS2 coat protein (input ligand: FMN 200 uM) [nM]	apparent KD of MS2 coat protein (input ligand: none) [nM]	apparent KD of MS2 coat protein [1] [nM]	other results
UCGACUAGAGGAUAUACAUGAGGAUCACCCAUGUUGGUAUCACGAAUUCAACCAACUCGUAGAAGGCUGACGAC [Eternabot (L1) Solution 98] (Eterna round: R97, puzzle: Exclusion 3)	24.2	24.9	–	–
GGUGGACAUGAGGAUCACCCAUGUGAGGAUAUCGGCCGGUUCGCGGUGGCUGGCGUCUCGAGAAGGCACAUAGU [Exclusion 1 V72] (puzzle: Exclusion 1)	–	–	86.4	–
AACAUGUGAGGAUAUGUCACAUGGCUCUUCGGAGCAAGAUGACAGAAGGCACAUGAGGAUCACCCAUGUGCAUC [Ex4-3: 27] (puzzle: Exclusion 4)	–	–	11.6	–
UUAAUUAAUGUGAGGAUAUCUAGAGCUGCGGCUCUAGAGAAGGCACAUGAGGAUCACCCAUGUCUCAAUUAAUU [BmEx4/2-E3] (Eterna round: R97, puzzle: Brourd's mod of Exclusion 4)	21.6	14.7	–	–
UUGUUGUAUGUAGGAUAUGCAUAUUAUUAUUAUGCAGAAGGACAUGAGGAUCACCCAUGUAUGUUAUUAUUAUAUGUUAUAUAU [Title] (Eterna round: R96, puzzle: Exclusion NG 1)	–	–	–	apparent KD of MS2 coat protein [2]: 21.3 nM
AUACCACGAGGAUAUCGUCUAUAAUACAUGAGGAUCACCCAUGUUAUAUCUGUAAUGUUUCGAGAAGGCGUGUUUU [JR_E5_Sub083] (puzzle: Exclusion 5)	–	–	16.6	–
CUAUCGUGAGGAUAUGACCCAUAAGCACUAAAGUAGGUGAGUCAGAAGGCACAUGAGGAUCACCCAUGUGGACC [Eternabot (L1) Solution 47] (Eterna round: R97, puzzle: Exclusion 4)	59.8	21.9	–	–
AGCAAGCAAUAGGAUAUGCCUGCAAGCUUGCACGCAGAAGGAUUGACUUGAGGAUCACCCAAGUGGGCUCCAAA [Xemaesti] (Eterna round: R97, puzzle: Exclusion 6)	356	83.6	–	–
AAUAACAGAGGAUAUACUGUUUUAUGUGUUUGUUGUUUUAAACAUGAGGAUCACCCAUGUAGAAGGCUGAGUAA [JMF 34] (puzzle: Exclusion 2)	–	–	21	–
UGUUGUCGCGCAGGAUAUGAGGAUCACCCAUAGAAGGAUAUCGAAAGAGAAGGUCUGAGGAUUACCCAGAAGGGCGGGACAACU [pwkr exNG2 2xF5 2xFMN.13] (Eterna round: R96, puzzle: Exclusion NG 2)	807	137	–	apparent KD of MS2 coat protein [2]: 133 nM
GAGAAACAUGAGGAUCACCCAUGUCAGGAUAUUCGGAGGAGAGGGAAGAGAGAGAGGAGAAGAAGGGACGAGAG [Exclusion 1 Rhiboswitch & Hairpin Submission (Joejoemyo11)] (puzzle: Exclusion 1)	–	–	26	apparent KD of MS2 coat protein [3]: 38.7 nM; apparent KD of MS2 coat protein [4]: 55.7 nM
GAUUAUGCGAGCUUUAGGGACAUGAGGAUCACCCAUGUUCGUCUUAUUGGUCUGGAUGCACUGACAUACCUAAAUCU [JMF 82] (puzzle: Sensor v3, turn-off variant 1)	–	–	25.5	apparent KD of MS2 coat protein [3]: 17.1 nM; apparent KD of MS2 coat protein [4]: 21.5 nM
AUGGAACAUGAGGAUCACCCAUGUGAGGAUAUGUGAGAAGGAUUUGAGAUGGAGAGGGACAGAAGGCACUAGGA [JR_Exclu1_Sub082] (puzzle: Exclusion 1)	–	–	37.6	–
UUAUGUAAUGUAGGAUAUCGGUCAGUUUCUGAUCGAGAAGGACAUGAGGAUCACCCAUGUAAGGCUACCGGUUUCUGGUGGCCU [JL ENG1 3.51] (Eterna round: R96, puzzle: Exclusion NG 1)	137	28.5	–	apparent KD of MS2 coat protein [2]: 20.7 nM
AAUAAACAUGAGGAUCACCCAUGUGAGGAUAUGCAAAUAAAUAAUAAAAUAAAUAAAAGCAGAAGGCACAAUAA [JMF most obvious solution 1] (puzzle: Exclusion 1)	–	–	35	apparent KD of MS2 coat protein [3]: 31.5 nM; apparent KD of MS2 coat protein [4]: 30.9 nM
UAUGUUGUUGUGAGGAUAUACUUAGUUUGACCGUAGUAGAAGGCACAUGAGGAUCACCCAUGUAGAUGUUUGGU [JR_BME4_Sub005] (puzzle: Brourd's mod of Exclusion 4)	–	–	14.9	–
GGAGGACGAGCAGGAUAUUUUCACAUGAGGAUCACCCAUGUGUAUUCAGGGUAAUCCUCCGCCGAAAAGAAGGGUUCGGAAGAA [JL ViennaUCT Socedi mod 2] (Eterna round: R96, puzzle: Exclusion NG 2)	62.9	47.2	–	apparent KD of MS2 coat protein [2]: 39 nM
AUAGAGUCAGGAUAUACAAGAUGAAAGAUAGAUAGAAGAAAGUAGAAGGGACAUGAGGAUCACCCAUGUAAGAA [JR_Exclu4_Sub051] (puzzle: Exclusion 4)	–	–	31.7	apparent KD of MS2 coat protein [3]: 34.9 nM; apparent KD of MS2 coat protein [4]: 36.2 nM

Sequence	apparent KD of MS2 coat protein (input ligand: FMN 200 uM) [nM]	apparent KD of MS2 coat protein (input ligand: none) [nM]	apparent KD of MS2 coat protein [1] [nM]	other results
AUUUGCUCGUCUACUCAAAACAUGAGGAUCACCCAUGUCGGAUUGGAUCCUACCCAGUCAAGACCAUACUCCUCGAC [Eternabot (Original) Solution 39] (Eterna round: R97, puzzle: Sensor, turn-off variant 1)	342	344	–	–
CCCGAACAUGAGGAUCACCCAUGUCAGGAUAUAUUGCAGUGCAGAGCGCGUGCUAAGGAUAGAAGGGACAUGAA [Eternabot (L2) Solution 62] (Eterna round: R97, puzzle: Exclusion 1)	31.4	29	–	–
CGCUAGUCAGGAUAUACGAACAUGUCAAAAGACGUGAAGGGACAUGAGGAUCACCCAUGUAGAAGGGACUAGCG [salish99_ex2_r3_012] (puzzle: Exclusion 2)	–	–	20	apparent KD of MS2 coat protein [3]: 152 nM; apparent KD of MS2 coat protein [4]: 28.5 nM
CCAAAUCAUGUAGGAUAUGCGUGGCGAAGCUAUGCAGAAGGACAUGAGGAUCACCCAUGUGCUUCCGUCUGCGUACAGACGGUA [JL ENG1 1.15] (Eterna round: R96, puzzle: Exclusion NG 1)	123	118	–	apparent KD of MS2 coat protein [2]: 103 nM
ACCUCACAUGAGGAUCACCCAUGUUAGGAUAUCUCGAUGCUCCACGGGCGGUAGCAUCAGAGAAGGAACGUGCU [Vematior] (puzzle: Exclusion 1)	–	–	19	–
GGUCGACAUGAGGAUCACCCAUGUCAGGAUAUCGUCACUGGAGCCUCGGCUCCAGUGACGAGAAGGGACAUAAU [E1/14-A2] (Eterna round: R97, puzzle: Exclusion 1)	23.4	31.4	–	–
AAAAGCCAAGGAUAUACAUGAGGAUCACCCAUGUAAGAAAUGGGCGCUACCGUUCCGUGUAGAAGGUGGGAAAA [Inuserce] (puzzle: Exclusion 3)	–	–	26	–
CCUCCCUGAGGAUAUCCACCCUCAUACAUGAGGAUCACCCAUGUUCAUCCGUGGGUACCCGGAGAAGGCAGAUCUC [Megrez-b] (Eterna round: R97, puzzle: Exclusion 5)	81	85.9	–	–
UUGUGGGUACGAAGGUGUAGUUUGAGCGUACGUUCUGUAACAUGAGGAUCACCCAUGUCGCUUUUUGCUCGUCUUAU [JR_SV3TOV2_Sub036] (puzzle: Sensor v3, turn-off variant 2)	–	–	68.2	apparent KD of MS2 coat protein [3]: 24.7 nM; apparent KD of MS2 coat protein [4]: 24.8 nM
CUAAGUUGGUAAGGAUAUCCUACAUUAUUCUGACCCGUGCAAGCUACAUGAGGAUCACCCAUGUGGGAGAAGGUGCGUUAAAGU [Design 4] (Eterna round: R96, puzzle: Exclusion NG 2)	23.7	24	–	apparent KD of MS2 coat protein [2]: 21.3 nM
UGCAUGCUAGGAUAUACGGGACAUUAGGGUUCGUUGUGUGGACAUGAGGAUCACCCAUGUAGAAGGAGCGUGCU [Mod of JL-ex2-2.15 mat747 mod] (puzzle: Exclusion 2)	–	–	69.3	–
CCUCCGGUGCGAGGAUAUCUGGCGGCCGCCGGUGGAGAAGGCGUACAUGAGGAUCACCCAUGUCCAGCGUGCUCCUCGCUGGUU [0.15] (Eterna round: R96, puzzle: Exclusion NG 1)	75	31	–	apparent KD of MS2 coat protein [2]: 19.9 nM
UUGGCAGGUUUUUUGUUUGACAUGAGGAUCACCCAUGUUGCGUGGGUUGUGUGUGUGCGGUGUAUAUAUAUGGUUCU [-19.3, -40.7 kcal, A 14%] (Eterna round: R97, puzzle: Sensor, turn-off variant 1)	203	364	–	–
GGUGCGUUUGUGAGGAUAUGCUGGUCCUUGGUUCCGCAGAAGGCACAUGAGGAUCACCCAUGUGGUGUCGUACC [salish99_Bmod_Ex4_044] (puzzle: Brourd's mod of Exclusion 4)	–	–	148	–
AUUAUUACAUAGGAUAUAAAAGAGCUCACUCAGUUAGAAGGAUGUACAUGAGGAUCACCCAUGUGAUUCUGGCU [Eternabot (L2) Solution 58] (Eterna round: R97, puzzle: Exclusion 6)	26.3	25.2	–	–
AAAUGCAAGCAAAGAUUCUACAUGAGGAUCACCCAUGUGCUCGUCUUAUAAAGUACUAUCACGAAAGUGAUAGUACA [Sensor 3, v1 - 34] (puzzle: Sensor v3, turn-off variant 1)	–	–	88.3	apparent KD of MS2 coat protein [3]: 18.2 nM; apparent KD of MS2 coat protein [4]: 17.6 nM
GGGUGCAGGCUGAGGUCCUACAUGAGGAUCACCCAUGUGGUCCGGUGACGUGAGUCACCGGACUUGGCUCGUCUUGU [salish99_S_TOV1_R5_010] (Eterna round: R97, puzzle: Sensor, turn-off variant 1)	41.5	50.5	–	–

Source: the supplement of paper PMC9170038
